Ten molecules from patent US20240288436A1 (KOREA ATOMIC ENERGY RESEARCH INSTITUTE, published 2024) can be followed below.

Numbering of substitutions follows the chain as printed. In names and notes the source's numbering stands.

First the molecules themselves.
T1: Biotin-GSAGGSTWGYPFHDGDYLNDE synthetic peptide (human TM4SF4 aa 126-140) (human, N-terminal biotin)
T1 construct: Immobilised on a streptavidin sensor chip as the SPR ligand; also called Biotin-hTM4SF4 aa 126-140; human TM4SF4-peptide (hTM4SF4 aa 126-140)
T1 peptide: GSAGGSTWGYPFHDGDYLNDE

B1: Hz2B7-1.3 humanized anti-TM4SF4 antibody (LC N31V) (antibody, V domains shown)
VH: EITLKESGPTLVKPTQTLTLTCTFSGFSLSTYGIGVSWIRQPPGKALEWLAHIWWNDNKYYNTALKSRLTITKDTSKNQVVLTMTNMDPVDTATYYCARKEGSSAPFAYWGQGTLVTVSS
VL: DIVMTQSPDSLAVSLGERATINCKSSQSLLVSSNQKNYLAWYQQKPGQPPKLLIYFASTRESGVPDRFSGSGSGTDFTLTISLMQAEDVAVYYCQQHYRTPPTFGQGTKVEIK
notes: Whole IgG, human IgG1 / kappa constant regions from the pdCMV-dhfr vector; only VH and VL are tied to the antibody; also called HzE2B7-1.3; HzE2B7-1.3(LC N31V)
B2: Hz2B7-1.1 humanized anti-TM4SF4 antibody (antibody, human IgG1, V domains shown)
VH: B1 VH
VL: B1 VL with V31N
notes: Tested as whole IgG from the pdCMV-dhfr vector (human IgG1 heavy constant, human kappa light constant); also called HzE2B7-1.1; HzE2B7-1.1(origin)
B3: Hz2B7-1.2 humanized anti-TM4SF4 antibody (LC N31F) (antibody, V domains shown)
VH: B1 VH
VL: B1 VL with V31F
notes: Whole IgG, human IgG1 / kappa constant regions from the pdCMV-dhfr vector; only VH and VL are tied to the antibody; also called HzE2B7-1.2; HzE2B7-1.2(LC N31F)
B4: Hz2B7-4.2 humanized anti-TM4SF4 antibody (antibody, human IgG1, V domains shown)
VH: B1 VH with W55Y
VL: B1 VL with V31F
notes: Whole IgG, human IgG1 / kappa constant regions
B5: Hz2B7-4.1 humanized anti-TM4SF4 antibody (antibody, human IgG1, V domains shown)
VH: B1 VH with W55Y
VL: B1 VL with V31N
notes: as for B4
B6: Hz2B7-4.3 humanized anti-TM4SF4 antibody (HC W55Y, LC N31V) (antibody, V domains shown)
VH: B1 VH with W55Y
VL: B1 VL
notes: Whole IgG, human IgG1 / kappa constant regions; also called HzE2B7-4.3; HzE2B7-4.3(HC W55Y, LC N31V)
B7: Hz2B7-3.3 humanized anti-TM4SF4 antibody (antibody, human IgG1, V domains shown)
VH: B1 VH with W55S
VL: B1 VL
notes: as for B4
B8: Hz2B7-2.1 humanized anti-TM4SF4 antibody (antibody, human IgG1, V domains shown)
VH: B1 VH with A46V
VL: B1 VL with V31N
notes: as for B4
B9: Hz2B7-3.2 humanized anti-TM4SF4 antibody (HC W55S, LC N31F) (antibody, V domains shown)
VH: B1 VH with W55S
VL: B1 VL with V31F
notes: Whole IgG, human IgG1 / kappa constant regions; also called HzE2B7-3.2; HzE2B7-3.2(HC W55S, LC N31F)
B10: Hz2B7-3.1 humanized anti-TM4SF4 antibody (antibody, human IgG1, V domains shown)
VH: B1 VH with W55S
VL: B1 VL with V31N
notes: as for B4

The target of one assay is T2, BSA (UniProt P02769 25-607).
T2 construct: Coated at 1 ug/ml as the specificity control; also called BSA solution
T2 sequence (P02769 25-607 limits assumed): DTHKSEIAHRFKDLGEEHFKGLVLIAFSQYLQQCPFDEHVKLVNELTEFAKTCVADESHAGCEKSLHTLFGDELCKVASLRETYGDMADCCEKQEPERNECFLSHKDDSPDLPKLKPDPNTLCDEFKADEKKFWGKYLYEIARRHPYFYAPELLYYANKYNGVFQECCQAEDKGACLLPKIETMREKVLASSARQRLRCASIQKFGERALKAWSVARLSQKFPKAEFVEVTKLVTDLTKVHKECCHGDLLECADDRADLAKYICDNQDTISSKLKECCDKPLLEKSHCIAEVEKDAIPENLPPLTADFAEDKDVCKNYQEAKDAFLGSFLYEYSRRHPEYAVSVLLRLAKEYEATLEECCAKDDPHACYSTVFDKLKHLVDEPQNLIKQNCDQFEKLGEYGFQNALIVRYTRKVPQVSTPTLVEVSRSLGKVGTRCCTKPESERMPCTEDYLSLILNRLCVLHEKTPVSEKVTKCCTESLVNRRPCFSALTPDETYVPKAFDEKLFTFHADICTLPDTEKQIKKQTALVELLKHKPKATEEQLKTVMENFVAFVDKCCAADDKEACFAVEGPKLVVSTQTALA
Kind of assay: indirect ELISA on coated BSA (1 µg/ml), anti-human IgG kappa-HRP, OD490nm. Here is the method: Specifically, the humanized antibody was manufactured in 10 types of Hz2B7-1.1, Hz2B7-1.2, Hz2B7-1.3, Hz2B7-2.1, Hz2B7-3.1, Hz2B7-3.2, Hz2B7-3.3, Hz2B7-4.1, Hz2B7-4.2 and Hz2B7-4.3, by combining 4 heavy chain variable region variants and 3 light chain variable region variants designed through Examples 1 and 2 above. For this, 100 μ of TM4SF4-BSA (1 μg/m ) or BSA solution (1 μg/M ) dissolved in coating buffer (100 mM carbonate/bicarbonate coating buffer, pH 9.6) was added to the bottom of each well of a 96-well plate and adsorbed at 4° C. for more than 16 hours. Next, the coated antigen was washed three times with washing buffer (wash buffer, 0.05% PBS-T, Tween-20), then 200 μ of block buffer (blocking buffer, 5% skim milk in wash buffer) was added to the bottom of each well where the antigen was not adsorbed, reacted at 4° C. for more than 16 hours, and then washed again three times with washing buffer. Then, the 10 combinations of the humanized antibodies and the chimeric antibodies purified through Experimental Example 1 were prepared by diluting them to various concentrations using block buffer, and then 100 μ a of each concentration was added to each well and reacted for 2 hours at room temperature. After washing again three times, 1 mg/ml antibody (α-human IgG-Kappa chain-HRP, Bethyl, USA) for detection was diluted 10,000-fold using block buffer solution, and 100 μ was added to each well and incubated at room temperature for 1 hour. After the reaction was completed, the wells were washed three times with washing buffer, 100 μl of substrate solution (OPD solution, 4 μ 30% H₂O₂, 100 μ OPD stock (40 mg/m ), adjusted to 10 m with phosphate citrate buffer) was added to each well, and the reaction was performed at room temperature. Then, 50 μl of 2.5M H₂SO₄ was added to terminate the reaction. Finally, to measure the activity of the enzyme bound to the solid phase, the absorbance was measured at 490 nm using an ELISA reader (FIG. 10).
On to B1, for which the binding result is listed as “no binding (tested: 1000 ng/ml)”.

With B2, the binding result was “no binding (tested: 1000 ng/ml)”.

On to B3, for which the binding result is given as “no binding (tested: 1000 ng/ml)”.

As for B4, the binding result is reported as “no binding (tested: 1000 ng/ml)”.

On to B5, for which the binding result was “no binding (tested: 1000 ng/ml)”.

B6: the binding result was “no binding (tested: 1000 ng/ml)”.

With B7, the binding result is recorded as “no binding (tested: 1000 ng/ml)”.

As for B8, the binding result was “no binding (tested: 1000 ng/ml)”.

As for B9, the binding result was “no binding (tested: 1000 ng/ml)”.

Take B10: the binding result is “no binding (tested: 1000 ng/ml)”.

A further assay deals with T1, Biotin-GSAGGSTWGYPFHDGDYLNDE synthetic …. Kind of assay: SPR, Biacore T200, biotin-peptide on streptavidin chip, antibody as analyte, 1:1 binding. Here is the method:
(§1) First, a streptavidin-conjugated sensor chip (Series S Senser Chip SA, Cytiva) was inserted into Biacore T200 (Cytiva), and activation buffer (1M NaCl, 50 mM NaOH) was flowed for 30 seconds, followed by HBS-EP buffer (Cytiva) to induce activation and stabilization of the sensor chip surface. […] The analyze antibodies of each concentration were flowed through the constructed ligand-bound streptavidin conjugated sensor chip at a rate of 30 ul/min for 480 seconds to induce binding, and then HBS-EP buffer solution was flowed at the same time and speed, and the degree to which the analyte antibody was dissociated from the ligand peptide was obtained in the form of a response unit. The association rate (Ka), dissociation rate (Kd), and equilibrium dissociation constant (KD, Kd/Ka) values were calculated using Biacore T200 evaluation software (Cytiva) by excluding the ligand-unbound sensor chip response values obtained in the same manner. As a calculation standard, the mass transfer fitting model for the interaction between the ligand peptide and the analyte antibody was analyzed using 1:1 binding.
(In general: In SPR one partner is held on a chip, and binding of the other changes the refractive index at the surface.)
For orientation: Kd means the free concentration of one partner at which half of the binding sites on the other are occupied at equilibrium, for simple one-to-one binding. A lower Kd goes with tighter binding. In turn, B1 displayed a Kd of 35.4 nM.

For B9, the Kd came out at 112 nM.

For a further assay the target is unchanged. The assay can be described thus: SPR (Biacore T200), biotin-TM4SF4(126-140) peptide captured on SA sensor chip, antibody as analyte, 1:1 binding model with mass transfer. Here is the method: as §1
As a reminder, the koff is the rate constant with which the complex falls apart. The term kon denotes the rate constant with which the complex forms. The low end stands for slower complex formation, the high end for faster complex formation. For the molecule B9, the koff is 0.000792 s⁻¹ and the kon was 7080 M⁻¹ s⁻¹.
